The subject of the series is anti-ras optimised three-finger peptide (F1 +3 Asn) finger 1 helix position +3 S->N (synthetic). The series can be described thus: ELISA. Particulars: apparent Kd; phage-displayed; equal to wild-type Zif268 DBD; Zn. A general note: An ELISA detects its analyte on a solid surface through an enzyme-linked reagent.

In the case of “GTGGTGGGCGCCGTCGGTGTGGGCAAG (double strand) [EJ (G12V) mutant H-ras site]”, the Kd was found to be 3 nM.
